± gives the uncertainty stated by the source.
Assay: self-splicing fitness, log relative to wild type (ln ratio); higher = more splicing; Tetrahymena group I intron in knt gene, E. coli kanamycin selection, DiMSum; sequences stand for … in CUCUCU…GGAGGGAAAAGUUAUCAGGCAUGCACCUGGUAGCUAGUCUUUAAACCAAUAGAUUGCAUCGGUUUAAAAGGCAAGACCGUCAAAUUGCGGGAAAGGGGUCAACAGCCGUUCAGUACCAAGUCUCAGGGGAAACUUUGAGAUGGCCUUGCAAAGGGUAUGGUAAUAAGCUGACGGACAUGGUCCUAACCACGCAGCCAAGUCCUAAGUCAACAGAUCUUCUGUUGAUAUGGAUGCAGUUCACAGACUAAAUGUCGGUCGGGGAAGAUGUAUUCUUCUCAUAAGAUAUAGUCGGACCUCUCCUUAAUGGGAGCUAGCGGAUGAAGUGAUGCAACACUGGAGCCGCUGGGAACUAAUUUGUAUGCGAAAGUAUAUUGAUUAGUUUUGGAGUACUCGUGGUCG
Outline: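 Library with all eight P1ex-region intron nucleotides randomised, intron inside the knt kanamycin-resistance gene on pET-22b(+), in E. coli BL21(DE3). Cells grew overnight at 37°C or 30°C on LB agar with or without 25 μg/mL kanamycin (plus 100 μg/mL carbenicillin, 50 μM IPTG, 0.2% rhamnose), in six replicate transformations. Pooled colonies were amplicon-sequenced on Illumina HiSeq 2500. DiMSum fitness is the error-weighted combination of wild-type-normalised replicate fold changes, kanamycin versus none.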

Sequence | self-splicing fitness (ln) (30 °C) | self-splicing fitness (ln) (37 °C)
AUCAAGCAAUAUUACGGCGC | -1.01 ± 0.093 | 0.428 ± 0.14
GGAUAGCAAUAUUACGGGAC | -2.5 ± 0.24 | -2.15 ± 0.17
UCACAGCAAUAUUACGCGCU | -3.85 ± 0.21 | -1.78 ± 0.16
GUUAAGCAAUAUUACGCCCA | 0.115 ± 0.22 | -0.355 ± 0.29
CCAUAGCAAUAUUACGACUU | -2.46 ± 0.17 | -3.03 ± 0.32
AUUGAGCAAUAUUACGCGGA | -4.15 ± 0.35 | -2.2 ± 0.14
AAUAAGCAAUAUUACGCGUU | -3.75 ± 0.15 | -1.8 ± 0.14
UGCCAGCAAUAUUACGUUCU | -2.37 ± 0.17 | -1.23 ± 0.14
GGCGAGCAAUAUUACGCCAG | -1 ± 0.18 | -2.71 ± 0.44
AAUGAGCAAUAUUACGUUCG | -1.74 ± 0.11 | -0.765 ± 0.12
UGAAAGCAAUAUUACGAGUA | -1.45 ± 0.1 | -0.821 ± 0.092
ACCUAGCAAUAUUACGCAUU | -1.42 ± 0.051 | -0.377 ± 0.056
CUACAGCAAUAUUACGGCAC | -3.29 ± 0.23 | -2.45 ± 0.32
AUCAAGCAAUAUUACGACCU | -0.924 ± 0.11 | -0.336 ± 0.1
UAGCAGCAAUAUUACGGGAC | -4.55 ± 0.31 | -2.75 ± 0.26
GCGCAGCAAUAUUACGAAAA | -1.92 ± 0.21 | -1.7 ± 0.21
CUAUAGCAAUAUUACGCGGA | -1.13 ± 0.49 | 
AGCAAGCAAUAUUACGAGAC | -4.19 ± 0.36 | -2.81 ± 0.21
UCUUAGCAAUAUUACGGCAG | -3.36 ± 0.26 | -2.23 ± 0.3
UCAAAGCAAUAUUACGGUAG | -1.54 ± 0.088 | -1.19 ± 0.11
UGUGAGCAAUAUUACGCCAG | -2.23 ± 0.32 | -2.01 ± 0.34
ACGAAGCAAUAUUACGGAAU | -3.14 ± 0.12 | -1.34 ± 0.1
CGUAAGCAAUAUUACGCAGC |  | -2.3 ± 0.39
CACGAGCAAUAUUACGCGCC |  | -0.83 ± 0.48
CAACAGCAAUAUUACGUUCC | -2.46 ± 0.096 | -2.02 ± 0.12
UCCUAGCAAUAUUACGGAGA | -0.637 ± 0.072 | -0.626 ± 0.079

Sequence | self-splicing fitness (ln) (30 °C) | self-splicing fitness (ln) (37 °C)
CCAUAGCAAUAUUACGCCAC |  | -1.75 ± 0.49
AACCAGCAAUAUUACGCUGA | -2.56 ± 0.1 | -1.51 ± 0.094
GCGCAGCAAUAUUACGCGAU |  | -2.14 ± 0.3
GGUAAGCAAUAUUACGGGCG | -0.129 ± 0.097 | -0.279 ± 0.13
UGCGAGCAAUAUUACGAUCG | -2.97 ± 0.27 | -1.38 ± 0.17
UCCCAGCAAUAUUACGUACU | -3.77 ± 0.19 | -0.776 ± 0.14
AGGUAGCAAUAUUACGCAUU | -1.862 ± 0.015 | -0.988 ± 0.034
CAGCAGCAAUAUUACGUUUC | -3.76 ± 0.17 | -2.53 ± 0.2
AAAGAGCAAUAUUACGUCAA | -3.31 ± 0.18 | -2.61 ± 0.19
ACAUAGCAAUAUUACGAGAG | -3.57 ± 0.28 | -2.55 ± 0.18
UGAUAGCAAUAUUACGUUUG | -1.26 ± 0.073 | 0.0201 ± 0.099
AAGUAGCAAUAUUACGAAUC | -2.13 ± 0.22 | -1.4 ± 0.25
CUACAGCAAUAUUACGUCGC | -4.05 ± 0.3 | -2.11 ± 0.23
GGUGAGCAAUAUUACGAGAG | -4.03 ± 0.27 | -2.38 ± 0.18
CGGAAGCAAUAUUACGCGAA | -2.86 ± 0.27 | -1.46 ± 0.32
UUCAAGCAAUAUUACGUGUG | -1.25 ± 0.056 | -0.551 ± 0.07
CCCUAGCAAUAUUACGCCUA |  | -2.48 ± 0.34
GUAGAGCAAUAUUACGACCU | -1.39 ± 0.15 | -0.95 ± 0.2
GAGUAGCAAUAUUACGAUCA | 0.0664 ± 0.19 | -0.761 ± 0.21
AGUUAGCAAUAUUACGGACA | -0.912 ± 0.12 | 0.372 ± 0.13
UCUGAGCAAUAUUACGGCAC | -4.07 ± 0.47 | -1.06 ± 0.28
GGUGAGCAAUAUUACGGGAC | -3.63 ± 0.29 | -1.85 ± 0.19
CUGAAGCAAUAUUACGAGUU | -4 ± 0.23 | -3.47 ± 0.19
AUAUAGCAAUAUUACGCUAG | -1.69 ± 0.25 | -1.19 ± 0.3
AUCAAGCAAUAUUACGAAUC | -4.76 ± 0.41 | -2.78 ± 0.3
GAGAAGCAAUAUUACGAACC | -0.324 ± 0.14 | -0.188 ± 0.22

Sequence | self-splicing fitness (ln) (30 °C) | self-splicing fitness (ln) (37 °C)
AACAAGCAAUAUUACGCCGU | -1.5 ± 0.096 | -0.696 ± 0.094
GCACAGCAAUAUUACGAGUA | -1.31 ± 0.084 | -0.881 ± 0.088
UUGGAGCAAUAUUACGUAUC | -2.95 ± 0.2 | 
UUUGAGCAAUAUUACGGACU | -4.55 ± 0.34 | -2.99 ± 0.23
CAAGAGCAAUAUUACGGGUG | -1.74 ± 0.078 | -1.17 ± 0.1
CCAAAGCAAUAUUACGCCUC | -3.33 ± 0.29 | -2.52 ± 0.32
UACGAGCAAUAUUACGCCGU | -2.69 ± 0.46 | -2.21 ± 0.29
UACAAGCAAUAUUACGCGAU | -3.74 ± 0.32 | -1.3 ± 0.2
GCUCAGCAAUAUUACGGUAU | -1.14 ± 0.061 | 0.0133 ± 0.075
AAUCAGCAAUAUUACGCAAU | -0.895 ± 0.067 | -0.0563 ± 0.093
UUGAAGCAAUAUUACGACCA | -0.132 ± 0.12 | 0.61 ± 0.15
CUAGAGCAAUAUUACGUCAU | -4.42 ± 0.28 | -2.58 ± 0.18
ACAUAGCAAUAUUACGUAGU | -2.54 ± 0.098 | -2.32 ± 0.12
UCAUAGCAAUAUUACGCGUG | -2.85 ± 0.12 | -1.67 ± 0.11
UCUAAGCAAUAUUACGGACG | -3.16 ± 0.22 | -1.95 ± 0.28
GGCAAGCAAUAUUACGCAGG | -2.1 ± 0.12 | -2.29 ± 0.2
UCAUAGCAAUAUUACGUGGU | -3.42 ± 0.16 | -2.8 ± 0.16
ACUGAGCAAUAUUACGGUGG | -3.61 ± 0.16 | -2.37 ± 0.18
UACCAGCAAUAUUACGGAGG | -2.34 ± 0.12 | -0.914 ± 0.12
GAUGAGCAAUAUUACGCCCA | -1.17 ± 0.23 | 0.487 ± 0.28
GACAAGCAAUAUUACGGAUA | -1.52 ± 0.12 | -1.47 ± 0.12
CUCAAGCAAUAUUACGUUAU | -3.81 ± 0.15 | -3.39 ± 0.2
GUUUAGCAAUAUUACGCUAA | -3.38 ± 0.32 | -1.4 ± 0.21
CCGUAGCAAUAUUACGAAAU | -3.61 ± 0.32 | -2.7 ± 0.34
GCGUAGCAAUAUUACGGCUC | 0.371 ± 0.11 | 0.776 ± 0.12
